From the supplement of paper PMC7877785
± gives the uncertainty stated by the source.

Assay: self-splicing fitness, log relative to wild type (ln ratio); higher = more splicing; Tetrahymena group I intron in knt gene, E. coli kanamycin selection, DiMSum; sequences stand for … in CUCUCU…GGAGGGAAAAGUUAUCAGGCAUGCACCUGGUAGCUAGUCUUUAAACCAAUAGAUUGCAUCGGUUUAAAAGGCAAGACCGUCAAAUUGCGGGAAAGGGGUCAACAGCCGUUCAGUACCAAGUCUCAGGGGAAACUUUGAGAUGGCCUUGCAAAGGGUAUGGUAAUAAGCUGACGGACAUGGUCCUAACCACGCAGCCAAGUCCUAAGUCAACAGAUCUUCUGUUGAUAUGGAUGCAGUUCACAGACUAAAUGUCGGUCGGGGAAGAUGUAUUCUUCUCAUAAGAUAUAGUCGGACCUCUCCUUAAUGGGAGCUAGCGGAUGAAGUGAUGCAACACUGGAGCCGCUGGGAACUAAUUUGUAUGCGAAAGUAUAUUGAUUAGUUUUGGAGUACUCGUGGUCG
Procedure, shortened: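 Library with all eight P1ex-region intron nucleotides randomised, intron inside the knt kanamycin-resistance gene on pET-22b(+), in E. coli BL21(DE3). Cells grew overnight at 37°C or 30°C on LB agar with or without 25 μg/mL kanamycin (plus 100 μg/mL carbenicillin, 50 μM IPTG, 0.2% rhamnose), in six replicate transformations. Pooled colonies were amplicon-sequenced on Illumina HiSeq 2500. DiMSum fitness is the error-weighted combination of wild-type-normalised replicate fold changes, kanamycin versus none.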

Row | Sequence | self-splicing fitness (ln) (30 °C) | self-splicing fitness (ln) (37 °C)
1 | GGUAAGCAAUAUUACGGUAU | -1.32 ± 0.074 | -1.44 ± 0.11
2 | GGUAAGCAAUAUUACGUAUU | -2.21 ± 0.12 | -1.22 ± 0.13
3 | GGUAAGCAAUAUUACGUCGC | -1.17 ± 0.13 | -0.683 ± 0.13
4 | GGUAAGCAAUAUUACGUGAA | -1.52 ± 0.098 | -1.18 ± 0.14
5 | GGUAAGCAAUAUUACGUUCC | -2.47 ± 0.18 | -2.85 ± 0.24
6 | GGUAAGCAAUAUUACGUUUU | -2.02 ± 0.12 | -0.929 ± 0.14
7 | GGUCAGCAAUAUUACGAAAG | -1.78 ± 0.084 | -1.22 ± 0.12
8 | GGUCAGCAAUAUUACGAAGA | -1.72 ± 0.18 | -0.837 ± 0.19
9 | GGUCAGCAAUAUUACGACGA | -0.308 ± 0.072 | 0.501 ± 0.11
10 | GGUCAGCAAUAUUACGAUCG | 0.0558 ± 0.12 | 0.097 ± 0.16
11 | GGUCAGCAAUAUUACGAUGA | -0.626 ± 0.087 | 0.0621 ± 0.099
12 | GGUCAGCAAUAUUACGAUGU | -0.0366 ± 0.056 | 0.261 ± 0.076
13 | GGUCAGCAAUAUUACGCAAG | -1.92 ± 0.17 | -0.453 ± 0.16
14 | GGUCAGCAAUAUUACGCACA | -0.667 ± 0.082 | 0.412 ± 0.12
15 | GGUCAGCAAUAUUACGCCUA | -0.826 ± 0.12 | -0.243 ± 0.14
16 | GGUCAGCAAUAUUACGCGAG | -1.93 ± 0.13 | -0.499 ± 0.13
17 | GGUCAGCAAUAUUACGCGGA | -2.04 ± 0.47 | -2.17 ± 0.41
18 | GGUCAGCAAUAUUACGCUAC | -3.55 ± 0.28 | -2.17 ± 0.16
19 | GGUCAGCAAUAUUACGCUAU | -1.32 ± 0.092 | -1.03 ± 0.096
20 | GGUCAGCAAUAUUACGGAUG | -0.625 ± 0.095 | -0.309 ± 0.097
21 | GGUCAGCAAUAUUACGGCAG | -0.557 ± 0.081 | -0.497 ± 0.11
22 | GGUCAGCAAUAUUACGGCUA | 0.0808 ± 0.098 | 0.494 ± 0.12

Row | Sequence | self-splicing fitness (ln) (30 °C) | self-splicing fitness (ln) (37 °C)
23 | GGUCAGCAAUAUUACGGGAA | -1.5 ± 0.16 | -0.702 ± 0.15
24 | GGUCAGCAAUAUUACGGGGC | -4.04 ± 0.33 | -1.11 ± 0.4
25 | GGUCAGCAAUAUUACGUAUA | -1.7 ± 0.18 | -0.369 ± 0.18
26 | GGUCAGCAAUAUUACGUAUU | -0.159 ± 0.055 | 0.511 ± 0.071
27 | GGUCAGCAAUAUUACGUCAU | -0.37 ± 0.088 | 0.00388 ± 0.12
28 | GGUGAGCAAUAUUACGAACU | -2.18 ± 0.42 | 
29 | GGUGAGCAAUAUUACGACCG | -0.141 ± 0.11 | 0.778 ± 0.19
30 | GGUGAGCAAUAUUACGACGU | -0.578 ± 0.13 | -0.013 ± 0.15
31 | GGUGAGCAAUAUUACGAGAC | -2.82 ± 0.33 | -2.01 ± 0.46
32 | GGUGAGCAAUAUUACGAGUG | -2.19 ± 0.41 | -2.55 ± 0.27
33 | GGUGAGCAAUAUUACGCACA | -1.07 ± 0.15 | -0.679 ± 0.17
34 | GGUGAGCAAUAUUACGCCAC | -1.24 ± 0.44 | 
35 | GGUGAGCAAUAUUACGCCCU | -1.66 ± 0.41 | 
36 | GGUGAGCAAUAUUACGCUAA | -3.69 ± 0.35 | -1.78 ± 0.21
37 | GGUGAGCAAUAUUACGCUCU | -3.87 ± 0.42 | -2.42 ± 0.41
38 | GGUGAGCAAUAUUACGCUUG | -3.71 ± 0.29 | -3.44 ± 0.33
39 | GGUGAGCAAUAUUACGGUGG | -3.06 ± 0.26 | -2.88 ± 0.32
40 | GGUGAGCAAUAUUACGUUCA |  | -1.92 ± 0.47
41 | GGUGAGCAAUAUUACGUUGG | -3.52 ± 0.32 | -0.982 ± 0.36
42 | GGUUAGCAAUAUUACGACUA | 0.135 ± 0.11 | 0.423 ± 0.14
43 | GGUUAGCAAUAUUACGACUG | -0.729 ± 0.1 | -0.796 ± 0.12
